From PMC9318220

Target: conSOSL.UFO.664 trimer with a C-terminal 8x His-tag (SUFO.664-His) (HIV-1 (consensus S))
Experiment: SEC + native gel or EMSA; SEC on HiPrep 26/60 Sephacryl S-300 HR after lectin affinity; eluted fractions analysed by Native-PAGE with silver stain and Western blot

Substance: conSOSL.UFO.664 trimer with a C-terminal 8x His-tag (SUFO.664-His)
- stoichiometry N: 3
